T1: FcγRIIb extracellular domain with C-terminal His tag (human, UniProt P31994 43-217)
T1 construct: extracellular domain; Soluble receptor expressed in FreeStyle293 cells, used as analyte in Biacore; also called FcgRIIb; 2b; not shown: His tag at the C terminus
T1 sequence (looked up): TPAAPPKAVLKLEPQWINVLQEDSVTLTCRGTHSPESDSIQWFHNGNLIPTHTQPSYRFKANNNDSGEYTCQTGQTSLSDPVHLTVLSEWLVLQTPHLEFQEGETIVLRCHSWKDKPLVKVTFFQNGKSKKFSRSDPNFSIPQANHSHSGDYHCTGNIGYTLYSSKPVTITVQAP

B1: GpH7-A5/GpH7-B3 variant P331_07I/GpL16-k0 (antibody, human IgG1, kappa)
heavy 1: not shown
heavy 2: not shown
light: DIVMTQSPLSLPVTPGEPASISCQASESLVHSNRNTYLHWYLQKPGQSPQLLIYKVSNRFSGVPDRFSGSGSGTDFTLKISRVEAEDVGVYYCSQNTHVPPTFGQGTKVEIERTVAAPSVFIFPPSDEQLKSGTASVVCLLNNFYPREAKVQWKVDNALQSGNSQESVTEQDSKDSTYSLSSTLTLSKADYEKHKVYACEVTHQGLSSPVTKSFNRGEC
notes: Heterodimerized anti-glypican-3 IgG1; P331I (EU) only in the GpH7-B3 chain; also called He Ab
B2: GpH7-A5/GpH7-B3 variant L328_13S/GpL16-k0 (antibody, human IgG1, kappa)
heavy 1: not shown
heavy 2: not shown
light: B1 light
notes: Heterodimerized anti-glypican-3 IgG1; L328S (EU) only in the GpH7-B3 chain; also called He Ab
B3: GpH7-A5/GpH7-B3 variant L328_15Y/GpL16-k0 (antibody, human IgG1, kappa)
heavy 1: not shown
heavy 2: not shown
light: B1 light
notes: Heterodimerized anti-glypican-3 IgG1; L328Y (EU) only in the GpH7-B3 chain; also called He Ab
B4: GpH7-A5/GpH7-B3 variant P331_10E/GpL16-k0 (antibody, human IgG1, kappa)
heavy 1: not shown
heavy 2: not shown
light: B1 light
notes: Heterodimerized anti-glypican-3 IgG1; P331E (EU) only in the GpH7-B3 chain; also called He Ab
B5: GpH7-A5/GpH7-B3 variant L328_14T/GpL16-k0 (antibody, human IgG1, kappa)
heavy 1: not shown
heavy 2: not shown
light: B1 light
notes: Heterodimerized anti-glypican-3 IgG1; L328T (EU) only in the GpH7-B3 chain; also called He Ab
B6: GpH7-A5/GpH7-B3 variant L328_10E/GpL16-k0 (antibody, human IgG1, kappa)
heavy 1: not shown
heavy 2: not shown
light: B1 light
notes: Heterodimerized anti-glypican-3 IgG1; L328E (EU) only in the GpH7-B3 chain; also called He Ab
B7: GpH7-A5/GpH7-B3 variant L328_06M/GpL16-k0 (antibody, human IgG1, kappa)
heavy 1: not shown
heavy 2: not shown
light: B1 light
notes: Heterodimerized anti-glypican-3 IgG1; L328M (EU) only in the GpH7-B3 chain; also called He Ab
B8: GpH7-A5/GpH7-B3 variant P331_16H/GpL16-k0 (antibody, human IgG1, kappa)
heavy 1: not shown
heavy 2: not shown
light: B1 light
notes: Heterodimerized anti-glypican-3 IgG1; P331H (EU) only in the GpH7-B3 chain; also called He Ab
B9: GpH7-A5/GpH7-B3 variant L328_07I/GpL16-k0 (antibody, human IgG1, kappa)
heavy 1: not shown
heavy 2: not shown
light: B1 light
notes: Heterodimerized anti-glypican-3 IgG1; L328I (EU) only in the GpH7-B3 chain; also called He Ab
B10: GpH7-A5/GpH7-B3 variant L328_09D/GpL16-k0 (antibody, human IgG1, kappa)
heavy 1: not shown
heavy 2: not shown
light: B1 light
notes: Heterodimerized anti-glypican-3 IgG1; L328D (EU) only in the GpH7-B3 chain; also called He Ab
B11: GpH7-A5/GpH7-B3 variant L328_16H/GpL16-k0 (antibody, human IgG1, kappa)
heavy 1: not shown
heavy 2: not shown
light: B1 light
notes: Heterodimerized anti-glypican-3 IgG1; L328H (EU) only in the GpH7-B3 chain; also called He Ab
B12: GpH7-A5/GpH7-B3 variant P331_15Y/GpL16-k0 (antibody, human IgG1, kappa)
heavy 1: not shown
heavy 2: not shown
light: B1 light
notes: Heterodimerized anti-glypican-3 IgG1; P331Y (EU) only in the GpH7-B3 chain; also called He Ab
B13: GpH7-A5/GpH7-B3 variant P331_04F/GpL16-k0 (antibody, human IgG1, kappa)
heavy 1: not shown
heavy 2: not shown
light: B1 light
notes: Heterodimerized anti-glypican-3 IgG1; P331F (EU) only in the GpH7-B3 chain; also called He Ab
B14: GpH7-A5/GpH7-B3 variant L328_18N/GpL16-k0 (antibody, human IgG1, kappa)
heavy 1: not shown
heavy 2: not shown
light: B1 light
notes: Heterodimerized anti-glypican-3 IgG1; L328N (EU) only in the GpH7-B3 chain; also called He Ab

T2 sequence (P08637 17-208): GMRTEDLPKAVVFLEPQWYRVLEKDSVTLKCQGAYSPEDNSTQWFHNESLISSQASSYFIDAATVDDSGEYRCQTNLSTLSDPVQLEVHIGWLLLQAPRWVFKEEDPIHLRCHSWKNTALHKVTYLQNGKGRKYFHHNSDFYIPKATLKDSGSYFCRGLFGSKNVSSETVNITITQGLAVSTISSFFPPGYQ

One test concerns the target T2, FcγRIIIa extracellular domain with C-terminal His tag (human, UniProt P08637 17-208).
T2 construct: extracellular domain; also called FcgRIIIa; 3a; not shown: His tag at the C terminus
The experiment in a line: SPR (Biacore), antibody captured on antigen peptide chip, FcγR as analyte. The protocol: (§1) Analysis of interaction between objective antibody and the FcγR was carried out using Biacore T100 (GE Healthcare). HBS-EP+ (GE Healthcare) was used as the running buffer, and the measurement temperature was set to 25° C. Chips produced by immobilizing the antigen peptide by the amine coupling method to a Series S Sencor Chip CM5 (GE Healthcare), or alternatively, chips produced by allowing preliminarily biotinylated antigen peptides to interact with and immobilize onto a Series S Sensor Chip SA (certified) (GE Healthcare) were used. Antibodies of interest were captured onto an antigen peptide-immobilized chip, and allowed to interact to each FcγR diluted with running buffer. To regenerate and repeatedly use the chip, the antibodies captured on the chip were washed off by reacting 10 mM glycine-HCl, pH 1.5.
(§2) The FcγR-binding activity of each antibody was assessed primarily using as an indicator the FcγR-binding activity and dissociation constant for FcγR.
For orientation: Surface plasmon resonance follows binding to a sensor surface in real time, without labels.
On to B1, for which the He/Con_3a is 66 relative binding (GpH7-A5/GpH7-B3/GpL16-k0 = 100).
Same read-out and setting: next, B2: 71.7 relative binding (GpH7-A5/GpH7-B3/GpL16-k0 = 100).
In the case of B3, the He/Con_3a is 68.3 relative binding (GpH7-A5/GpH7-B3/GpL16-k0 = 100).
The same measure, in the same setting: next, B4: 75.1 relative binding (GpH7-A5/GpH7-B3/GpL16-k0 = 100); B5: 75.3 relative binding (GpH7-A5/GpH7-B3/GpL16-k0 = 100); B6: 53.4 relative binding (GpH7-A5/GpH7-B3/GpL16-k0 = 100).
Turning to B7, the He/Con_3a was 78.6 relative binding (GpH7-A5/GpH7-B3/GpL16-k0 = 100).
Same read-out and setting: as for B8, the figure is 80.2 relative binding (GpH7-A5/GpH7-B3/GpL16-k0 = 100); as for B9, 84 relative binding (GpH7-A5/GpH7-B3/GpL16-k0 = 100).
The same measure, in the same setting: as for B10, the figure is 47.8 relative binding (GpH7-A5/GpH7-B3/GpL16-k0 = 100); as for B11, 54.3 relative binding (GpH7-A5/GpH7-B3/GpL16-k0 = 100); as for B12, 81.9 relative binding (GpH7-A5/GpH7-B3/GpL16-k0 = 100).
Still for that read-out and setting: as for B13, the figure is 77.3 relative binding (GpH7-A5/GpH7-B3/GpL16-k0 = 100).
On to B14, for which the He/Con_3a was 49.7 relative binding (GpH7-A5/GpH7-B3/GpL16-k0 = 100).

In the next test the target is T1, FcγRIIb extracellular domain with …. The test is described as above. The protocol:
as §1, §2
With B1, the He/Con_2b is 114 relative binding (GpH7-A5/GpH7-B3/GpL16-k0 = 100).
Same read-out and setting: as for B2, the figure is 149 relative binding (GpH7-A5/GpH7-B3/GpL16-k0 = 100).
On the same count and under the same terms, next, B3: 193 relative binding (GpH7-A5/GpH7-B3/GpL16-k0 = 100); B4: 116 relative binding (GpH7-A5/GpH7-B3/GpL16-k0 = 100); B5: 141 relative binding (GpH7-A5/GpH7-B3/GpL16-k0 = 100).
The same measure, in the same setting: as for B6, the figure is 172 relative binding (GpH7-A5/GpH7-B3/GpL16-k0 = 100).
As for B7, the He/Con_2b is 142 relative binding (GpH7-A5/GpH7-B3/GpL16-k0 = 100).
Same read-out and setting: as for B8, the figure is 116 relative binding (GpH7-A5/GpH7-B3/GpL16-k0 = 100); as for B9, 160 relative binding (GpH7-A5/GpH7-B3/GpL16-k0 = 100); as for B10, 199 relative binding (GpH7-A5/GpH7-B3/GpL16-k0 = 100).
Same read-out and setting: next, B11: 80.6 relative binding (GpH7-A5/GpH7-B3/GpL16-k0 = 100).
Still for that read-out and setting: as for B12, the figure is 114 relative binding (GpH7-A5/GpH7-B3/GpL16-k0 = 100); as for B13, 110 relative binding (GpH7-A5/GpH7-B3/GpL16-k0 = 100); as for B14, 80.8 relative binding (GpH7-A5/GpH7-B3/GpL16-k0 = 100).

A further test has as its target T2, FcγRIIIa extracellular domain with …. Description: SPR; He/Con_3a divided by He/Con_2b (FcγRIIIa over FcγRIIb). The protocol:
as §1, §2
Take B1: the “He_3a/2b (IIIa/IIb)” value worked out at 0.58 ratio.
Still for that read-out and setting: next, B2: 0.48 ratio.
Same read-out and setting: next, B3: 0.35 ratio.
As to B4, the “He_3a/2b (IIIa/IIb)” value was found to be 0.65 ratio.
Still for that read-out and setting: as for B5, the figure is 0.53 ratio; as for B6, 0.31 ratio.
The same measure, in the same setting: as for B7, the figure is 0.56 ratio.
Still for that read-out and setting: next, B8: 0.69 ratio; B9: 0.52 ratio; B10: 0.24 ratio.
As for B11, the “He_3a/2b (IIIa/IIb)” value stood at 0.67 ratio.
Turning to B12, the “He_3a/2b (IIIa/IIb)” value was 0.72 ratio.
Still for that read-out and setting: as for B13, the figure is 0.7 ratio; as for B14, 0.61 ratio.

The record behind these values is patent US20180155451A1 (published 2018).
